B1: TMEM132E: Transmembrane protein 132E, SEQ ID NO: 8, co-transfected cDNA clone (protein, listed as Homo sapiens)
chain: MAPGMSGRGGAALLCLSALLAHASGRSHPASPSPPGPQASPVLPVSYRLSHTRLAFFLREARPPSPAVANSSLQRSEPFVVFQTKELPVLNVSLGPFSTSQVVARELLQPSSTLDIPERLTVNWKVRAFIVRSHVPASQPVVQVLFYVAGRDWDDFGVTERLPCVRLHAFRDAREVKSSCRLSGGLATCLVRAELPLAWFGPPAPAAPPTARRKSPDGLEPEATGESQQAELYYTLHAPDASGGCGGSRRGAGPGVGARAESPTQHPLLRIGSISLFRPPPRRTLQEHRLDSNLMIRLPDRPLKPGEVLSILLYLAPNSSSPSSPSVEHFTLRVKAKKGVTLLGTKSRSGQWHVTSELLTGAKHSTATVDVAWAQSTPLPPREGQGPLEILQLDFEMENFTSQSVKRRIMWHIDYRGHGALPDLERAVTELTVIQRDVQAILPLAMDTEIINTAILTGRTVAIPVKVIAIEVNGLVLDISALVECESDNEDIIKVSSSCDYVFVSGKESRGSMNARVTFRYDVLNAPLEMTVWVPKLPLHIELSDARLSQVKGWRVPILPDRRSVRESEDEDEEEEERRQSASRGCTLQYQHATLQVFTQFHTTSSEGTDQVVTMLGPDWLVEVTDLVSDFMRVGDPRVAHMVDSSTLAGLEPGTTPFKVVSPLTEAVLGETLLTVTEEKVSITQLQAQVVASLALSLRPSPGSSHTILATTAAQQTLSFLKQEALLSLWLSYSDGTTAPLSLYSPRDYGLLVSSLDEHVATVTQDRAFPLVVAEAEGSGELLRAELTIAESCQKTKRKSVLATTPVGLRVHFGRDEEDPTYDYPGPSQPGPGGGEDEARGAGPPGSALPAPEAPGPGTASPVVPPTEDFLPLPTGFLQVPRGLTDLEIGMYALLGVFCLAILVFLINCIVFVLRYRHKRIPPEGQTSMDHSHHWVFLGNGQPLRVQGELSPPAGNPLETVPAFCHGDHHSSGSSQTSVQSQVHGRGDGSSGGSARDQAEDPASSPTSKRKRVKFTTFTTLPSEELAYDSVPAGEEDEEEEEDLGWGCPDVAGPTRPTAPPDLHNYMRRIKEIA
B2: TMEM100: Transmembrane protein 100, SEQ ID NO: 9, co-transfected cDNA clone (protein, listed as Homo sapiens)
chain: MTEEPIKEILGAPKAHMAATMEKSPKSEVVITTVPLVSEIQLMAATGGTELSCYRCIIPFAVVVFIAGIVVTAVAYSFNSHGSIISIFGLVVLSSGLFLLASSALCWKVRQRSKKAKRRESQTALVANQRSLFA

Biological target: T1, human α9α10 nAChR (Homo sapiens, UniProt Q9GZZ6+Q9UGM1)
T1 construct: expressed in transfected cells; host or cells: HEK293T
T1 sequence (Q9UGM1 23-479): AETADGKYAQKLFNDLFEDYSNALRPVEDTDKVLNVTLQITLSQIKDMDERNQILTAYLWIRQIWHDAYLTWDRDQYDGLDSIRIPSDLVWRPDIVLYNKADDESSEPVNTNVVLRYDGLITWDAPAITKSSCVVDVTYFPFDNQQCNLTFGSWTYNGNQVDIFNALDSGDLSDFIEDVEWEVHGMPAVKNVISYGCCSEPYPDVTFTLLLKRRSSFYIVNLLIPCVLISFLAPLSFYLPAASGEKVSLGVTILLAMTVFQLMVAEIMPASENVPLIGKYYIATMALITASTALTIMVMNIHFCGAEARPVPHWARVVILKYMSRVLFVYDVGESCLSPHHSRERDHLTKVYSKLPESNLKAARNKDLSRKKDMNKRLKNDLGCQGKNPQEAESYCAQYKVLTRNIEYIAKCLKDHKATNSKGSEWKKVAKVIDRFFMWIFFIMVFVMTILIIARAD
T1 sequence (Q9GZZ6 25-450): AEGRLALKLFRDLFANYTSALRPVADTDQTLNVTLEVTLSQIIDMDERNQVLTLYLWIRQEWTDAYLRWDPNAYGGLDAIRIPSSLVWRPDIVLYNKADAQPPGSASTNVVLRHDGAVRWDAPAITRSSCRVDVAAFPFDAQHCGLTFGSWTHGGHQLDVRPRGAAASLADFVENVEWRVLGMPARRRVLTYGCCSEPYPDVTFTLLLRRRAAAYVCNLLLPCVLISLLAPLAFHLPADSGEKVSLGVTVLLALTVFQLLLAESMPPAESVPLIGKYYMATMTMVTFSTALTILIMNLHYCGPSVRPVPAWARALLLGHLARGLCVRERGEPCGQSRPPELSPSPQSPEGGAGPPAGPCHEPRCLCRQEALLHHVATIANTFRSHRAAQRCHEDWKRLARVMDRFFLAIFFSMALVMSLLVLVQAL
Experiment: FLIPR calcium assay of HEK293T cells co-transfected with α9α10 nAChR and cDNA clones, response evoked by 200 μM ACh
Format: cell-based
Conditions: 200 μM ACh; for FLIPR Response (Fold/Baseline): 180 s; for functional expression of co-transfected α9α10 nAChR in cDNA library screen: HEK293T, 20,000 cDNA clones
Protocol: Human embryonic kidney 293T (HEK293T) cells were cultured in high glucose DMEM medium supplemented with 10% FBS, sodium pyruvate and penicillin/streptomycin. Prior to transfection, cells were seeded at ˜80-90% confluence in 384-well fluorescence imaging plate reader (FLIPR) assay plates. After a 4 hour (hr) incubation, wells of cells were individually co-transfected with human α9α10 nAChR plus one of 20,000 clones from cDNA libraries encoding most all human proteins (Origene Technologies; Rockville, Md.; Broad Institute; Cambridge, Mass.) using Fugene HD (Promega; Madison, Wis.) according to the manufacture's protocol. After two days incubation, cells were washed three times with assay buffer (137 mM NaCl, 4 mM KCl, 2 mM CaCl2, 1 mM MgCl2, 5 mM glucose, 10 mM HEPES pH7.4) and loaded with Calcium5 dye (Molecular Devices; San Jose, Calif.) and 1.25 mM probenecid for 1 hr at room temperature (RT). After three washes, the plates were placed in the FLIPR stage.
To further characterize the regulation of α9α10 nAChR expression, HEK293T cells were co-transfected with α9α10 nAChR and each of CHAT, TMIE, TMEM100, TMEM132A, TMEM132C, TMEM132D, TMEM132E and TNFRSF10A individually and in combination (Table 2).

[1] = HEK293T co-transfected with α9α10 nAChR + CHAT plus the named gene
[2] = HEK293T co-transfected with α9α10 nAChR plus the named gene

| Molecule | FLIPR Response (Fold/Baseline) [1] [Fold/Baseline] | FLIPR Response (Fold/Baseline) [2] [Fold/Baseline] | functional expression of co-transfected α9α10 nAChR in cDNA library screen |
| --- | --- | --- | --- |
| B1 | 2.6 | 0.7 | enabled functional expression |
| B2 | 3.0 | 0.6 | enabled functional expression |

— US12227771B2, “Expression systems and methods of use thereof” (Janssen Pharmaceutica NV, priority 2019, dated 2025)
